# In patent US7067277B1, “Chimeric G proteins and uses thereof” (H. Lundbeck A/S, priority 1999, dated 2006):
# Positions count from the first letter of the chain named.
# T1: r GALR3 (Rattus norvegicus, UniProt O88626)
# T1 sequence (O88626 1-370): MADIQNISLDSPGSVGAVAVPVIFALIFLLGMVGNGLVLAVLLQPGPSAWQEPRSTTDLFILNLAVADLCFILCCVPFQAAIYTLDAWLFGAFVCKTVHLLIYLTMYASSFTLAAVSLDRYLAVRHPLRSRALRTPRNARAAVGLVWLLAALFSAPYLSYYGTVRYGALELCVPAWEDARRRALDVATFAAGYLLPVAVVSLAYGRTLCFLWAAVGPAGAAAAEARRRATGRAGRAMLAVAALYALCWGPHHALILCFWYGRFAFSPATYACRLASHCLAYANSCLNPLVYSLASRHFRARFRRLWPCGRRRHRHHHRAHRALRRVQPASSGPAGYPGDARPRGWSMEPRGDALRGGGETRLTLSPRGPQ
# B1: hGαq/s9: human Gαq with 9 C-terminal amino acids of Gαs (protein)
# chain: MTLESIMACCLSEEAKEARRINDEIERQLRRDKRDARRELKLLLLGTGESGKSTFIKQMRIIHGSGYSDEDKRGFTKLVYQNIFTAMQAMIRAMDTLKIPYKYEHNKAHAQLVREVDVEKVSAFENPYVDAIKSLWNDPGIQECYDRRREYQLSDSTKYYLNDLDRVADPSYLPTQQDVLRVRVPTTGIIEYPFDLQSVIFRMVDVGGQRSERRKWIHCFENVTSIMFLVALSEYDQVLVESDNENRMEESKALFRTIITYPWFQNSSVILFLNKKDLLEEKIMYSHLVDYFPEYDGPQRDAQAAREFILKMFVDLNPDSDKIIYSHFTCATDTENIRFVFAAVKDTILQMHLRQYELL
# B2: human Gαq/i3(5): human Gαq with five C-terminal amino acids of Gαi3 (protein)
# chain: B1 chain with M351L, H352N, R354K, Q355E, Y356C, E357G, L359Y
# B3: hGαq/s5: human Gαq with 5 C-terminal amino acids of Gαs (protein)
# chain: B1 chain with M351L, H352N, R354K
# B4: dGαq/z5: D. melanogaster Gαq chimera containing the five C-terminal amino acids of human Gαz (SEQ ID NO: 41) (protein)
# chain: MECCLSEEAKEQKRINQEIEKQLRRDKRDARRELKLLLLGTGESGKSTFIKQMRIIHGSGYSDEDKRGYIKLVFQNIFMAMQSMIKAMDMLKISYGQGEHSELADLVMSIDYETVTTFEDPYLNAIKTLWDDAGIQECYDRRREYQLTDSAKYYLKDLDRVAQPAYLPTEQDILRVRVPTTGIIEYPFDLEEIRFRMVDVGGQRSERRKWIHCFENVTSIIFLVALSEYDQILFESDNENRMEESKALFRTIITYPWFQNSSVILFLNKKDLLEEKIMYSHLVDYFPEYDGPQRDAITAREFILRMFVDLNPDSEKIIYSHFTCATDTENIRFVFAAVKDTILQSNLKYIGLC
# modifications: Drosophila melanogaster
# B5: C. elegans Gαq/i3(5): C. elegans Gαq with five C-terminal amino acids of Gαi3 (SEQ ID NO: 5) (protein)
# chain: MACCLSEEAREQKRINQEIEKQLQRDKRNARRELKLLLLGTGESGKSTFIKQMRIIHGQGYSEEDKRAHIRLVYQNVFMAIQSMIRAMDTLDIKFGNESEELQEKAAVVREVDFESVTSFEEPYVSYIKELWEDSGIQECYDRRREYQLTDSAKYYLSDLRRLAVPDYLPTEQDILRVRVPTTGIIEYPFDLEQIIFRMVDVGGQRSERRKWIHCFENVTSIMFLVALSEYDQVLVECDNENRMEESKALFRTIITYPWFTNSSVILFLNKKDLLEEKILYSHLADYFPEYDGPPRDPIAAREFILKMFVDLNPDADKIIYSHFTCATDTENIRFVFAAVKDTILQHNLKECGLY
# modifications: C. elegans
# B6: cGαq/s21: C. elegans Gαq with C-terminal Gαs tail of 21 amino acids (SEQ ID NO: 4) (protein)
# chain: MACCLSEEAREQKRINQEIEKQLQRDKRNARRELKLLLLGTGESGKSTFIKQMRIIHGQGYSEEDKRAHIRLVYQNVFMAIQSMIRAMDTLDIKFGNESEELQEKAAVVREVDFESVTSFEEPYVSYIKELWEDSGIQECYDRRREYQLTDSAKYYLSDLRRLAVPDYLPTEQDILRVRVPTTGIIEYPFDLEQIIFRMVDVGGQRSERRKWIHCFENVTSIMFLVALSEYDQVLVECDNENRMEESKALFRTIITYPWFTNSSVILFLNKKDLLEEKILYSHLADYFPEYDGPPRDPIAAREFILKMFVDLNPDADKIIYSHFTCATDTENIRRVFNDCRDIIQRMHLRQYELL
# modifications: C. elegans
# Key:
# Experiment in all cases: Calcium mobilization (FLIPR, Fluo-3) in transfected COS-7 cells
# Assay type in all cases: cell-based
# h D5 = h D5 (Homo sapiens, UniProt P21918); conditions: h D5 + chimera in COS-7; agonist DA, max 100 μM
# Protocol: (§1) COS-7 cells were cultured in 225 cm^2 flasks in Dulbecco's Modified Eagle Medium (DMEM) with supplements (10% bovine calf serum, 4 mM glutamine, 100 units/ml penicillin and 100 μg/ml streptomycin) at 37° C., 5% CO2. Stock plates of COS-7 cells were trypsinized and split 1:6 every 3–4 days.
# (§2) GPCR and chimeric G protein cDNAs were transiently transfected into COS-7 cells in 150 cm^2 flasks by the DEAE-dextran method (Cullen, 1987), using a total of 20 μg of DNA/˜7×10^6 cells. For evaluating the function of a single chimeric G protein, the standard cDNA transfection ratio was 1:1 (10 μg GPCR cDNA and 10 μg chimeric G protein cDNA). For evaluating the function of a mixture of chimeric G proteins, the standard cDNA transfection ratio was 8:1:1 (16 μg GPCR cDNA, 2 μg Gαq/z cDNA, 2 μg Gαq/s cDNA).
# (§3) Twenty four hours after transient transfection, COS-7 cells were seeded into 96-well black wall microtiter plates coated with poly-D-lysine for assay the following day. Just prior to assay, culture medium was aspirated and cells were dye-loaded with 4 μM Fluo-3/0.01% pluronic acid in assay buffer composed of Hank's Balanced Salt Solution (138 mM NaCl, 5 mM KCl, 1.3 mM CaCl2, 0.5 mM MgCl2, 0.4 mM MgSO4, 0.3 mM KH2PO4, 0.3 mM Na2HPO4, 5.6 mM glucose) plus 20 mM HEPES (pH 7.4), 0.1% BSA and 2.5 mM probenicid (100 μl/well) for 1 hour in 5% CO2 at 37° C. After excess dye was discarded, cells were washed in assay buffer and layered with a final volume equal to 100 μl/well. Basal fluorescence was monitored in a fluorometric imaging plate reader (FLIPR™, Molecular Devices) with an excitation wavelength of 488 nm and an emission range of 500 to 560 nm. Laser excitation energy was adjusted so that basal fluorescence readings were approximately 10,000 relative fluorescent units. Cells were stimulated with agonists diluted in assay buffer (50 μl), and relative fluorescent units were measured at defined intervals (exposure=0.4 sec) over a 3 min period at room temperature. Maximum change in fluorescence was calculated for each well. Concentration-response curves derived from the maximum change in fluorescence were analyzed by nonlinear regression (Hill equation).
# h 5HT4 = h 5HT4 (Homo sapiens, UniProt Q13639); conditions: h 5HT4 + chimera in COS-7; agonist 5HT, max 100 μM
# Protocol: as §1, §2, §3
# h GLP-1 = h GLP-1 (Homo sapiens, UniProt P43220); conditions: h GLP-1 + chimera in COS-7; agonist GLP-1, max 10 μM
# Protocol: as §1, §2, §3
# h 5HT6 = h 5HT6 (Homo sapiens, UniProt P50406); conditions: h 5HT6 + chimera in COS-7; agonist 5HT, max 100 μM
# Protocol: as §1, §2, §3
# h β2 adr = h β2 adr (Homo sapiens, UniProt P07550); conditions: h β2 adr + chimera in COS-7; agonist NE, max 100 μM
# Protocol: as §1, §2, §3
# h 5HT7 = h 5HT7 (Homo sapiens, UniProt P34969); conditions: h 5HT7 + chimera in COS-7; agonist 5HT, max 100 μM
# Protocol: as §1, §2, §3
# h D1 = biological target: T2, h D1 (Homo sapiens, UniProt P21728)
# T2 construct: expressed in transfected cells; host or cells: COS-7
# Protocol: as §1
# For evaluating the function of a single chimeric G protein, the standard cDNA transfection ratio was 1:1 (10 μg GPCR cDNA and 10 μg chimeric G protein cDNA). For evaluating the function of a mixture of chimeric G proteins, the standard cDNA transfection ratio was 8:1:1 (16 μg GPCR cDNA, 2 μg Gαq/z cDNA, 2 μg Gαq/s cDNA).
# as §3, with “Just prior to assay, culture medium was aspirated and cells were dye-loaded with 4 μM Fluo-3/0.01% pluronic acid in assay buffer composed of Hank's Balanced Salt Solution (138 mM NaCl, 5 mM KCl, 1.3 mM CaCl2, 0.5 mM MgCl2, 0.4 mM MgSO4, 0.3 mM KH2PO4, 0.3 mM Na2HPO4, 5.6 mM glucose) plus 20 mM HEPES (pH 7.4), 0.1% BSA and 2.5 mM probenicid (100 μl/well) for 1 hour in 5% CO2 at 37° C.” left out
# r GALR3 = biological target: T1, r GALR3; conditions: COS-7 cells transfected with the rat GALR3 receptor; n=4
# Protocol: as §1, §2, §3
# [1] = h D1 + chimera in COS-7, agonist DA, max 100 μM
# T2 sequence (P21728 whole entry): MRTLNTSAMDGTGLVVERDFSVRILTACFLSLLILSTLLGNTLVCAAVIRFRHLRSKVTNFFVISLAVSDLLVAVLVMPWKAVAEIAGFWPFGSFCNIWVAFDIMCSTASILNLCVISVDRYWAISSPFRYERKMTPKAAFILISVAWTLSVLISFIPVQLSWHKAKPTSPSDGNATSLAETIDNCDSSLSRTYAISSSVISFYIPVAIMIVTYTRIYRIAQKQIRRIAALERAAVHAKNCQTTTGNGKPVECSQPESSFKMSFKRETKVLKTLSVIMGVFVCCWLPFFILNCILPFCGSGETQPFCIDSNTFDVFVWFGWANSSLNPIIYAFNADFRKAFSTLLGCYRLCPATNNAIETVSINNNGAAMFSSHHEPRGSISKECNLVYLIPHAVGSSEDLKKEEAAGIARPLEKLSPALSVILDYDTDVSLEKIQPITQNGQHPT
# Sequence of h 5HT7 (P34969 whole entry): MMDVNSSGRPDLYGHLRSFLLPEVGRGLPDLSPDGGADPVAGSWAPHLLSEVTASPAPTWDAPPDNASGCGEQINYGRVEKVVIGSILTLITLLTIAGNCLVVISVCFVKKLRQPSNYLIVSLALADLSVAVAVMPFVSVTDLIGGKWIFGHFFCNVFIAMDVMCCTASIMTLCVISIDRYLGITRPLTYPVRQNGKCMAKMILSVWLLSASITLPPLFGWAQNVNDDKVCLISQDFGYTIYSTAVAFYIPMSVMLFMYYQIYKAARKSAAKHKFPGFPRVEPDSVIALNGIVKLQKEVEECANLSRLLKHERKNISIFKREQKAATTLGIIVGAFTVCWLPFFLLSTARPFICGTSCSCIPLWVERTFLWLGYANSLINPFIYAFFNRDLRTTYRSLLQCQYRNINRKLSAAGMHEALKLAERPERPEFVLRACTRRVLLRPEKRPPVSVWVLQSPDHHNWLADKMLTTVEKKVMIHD
# Sequence of h 5HT4 (Q13639 whole entry): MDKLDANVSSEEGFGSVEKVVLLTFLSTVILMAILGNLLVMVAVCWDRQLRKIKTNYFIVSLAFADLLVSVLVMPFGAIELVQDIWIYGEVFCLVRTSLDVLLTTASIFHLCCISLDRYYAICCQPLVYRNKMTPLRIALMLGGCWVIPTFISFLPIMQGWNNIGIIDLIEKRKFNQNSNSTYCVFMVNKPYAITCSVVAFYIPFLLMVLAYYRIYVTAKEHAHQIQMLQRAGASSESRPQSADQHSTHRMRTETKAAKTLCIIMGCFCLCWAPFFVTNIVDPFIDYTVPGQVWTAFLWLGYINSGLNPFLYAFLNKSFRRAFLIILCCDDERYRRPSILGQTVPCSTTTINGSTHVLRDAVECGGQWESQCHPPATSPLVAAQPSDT
# Sequence of h GLP-1 (P43220 24-463): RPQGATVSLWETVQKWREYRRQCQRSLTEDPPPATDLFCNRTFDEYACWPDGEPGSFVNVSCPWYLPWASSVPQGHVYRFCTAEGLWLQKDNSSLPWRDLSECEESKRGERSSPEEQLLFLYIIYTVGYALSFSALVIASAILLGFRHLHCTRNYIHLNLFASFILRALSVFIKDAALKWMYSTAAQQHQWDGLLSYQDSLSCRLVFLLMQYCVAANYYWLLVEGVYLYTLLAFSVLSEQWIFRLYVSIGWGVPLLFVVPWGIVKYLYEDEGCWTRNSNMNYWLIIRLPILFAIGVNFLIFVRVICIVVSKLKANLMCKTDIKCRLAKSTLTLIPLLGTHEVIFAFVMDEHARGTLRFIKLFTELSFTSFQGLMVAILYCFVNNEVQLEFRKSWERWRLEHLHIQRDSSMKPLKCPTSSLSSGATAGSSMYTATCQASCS
# Sequence of h D5 (P21918 whole entry): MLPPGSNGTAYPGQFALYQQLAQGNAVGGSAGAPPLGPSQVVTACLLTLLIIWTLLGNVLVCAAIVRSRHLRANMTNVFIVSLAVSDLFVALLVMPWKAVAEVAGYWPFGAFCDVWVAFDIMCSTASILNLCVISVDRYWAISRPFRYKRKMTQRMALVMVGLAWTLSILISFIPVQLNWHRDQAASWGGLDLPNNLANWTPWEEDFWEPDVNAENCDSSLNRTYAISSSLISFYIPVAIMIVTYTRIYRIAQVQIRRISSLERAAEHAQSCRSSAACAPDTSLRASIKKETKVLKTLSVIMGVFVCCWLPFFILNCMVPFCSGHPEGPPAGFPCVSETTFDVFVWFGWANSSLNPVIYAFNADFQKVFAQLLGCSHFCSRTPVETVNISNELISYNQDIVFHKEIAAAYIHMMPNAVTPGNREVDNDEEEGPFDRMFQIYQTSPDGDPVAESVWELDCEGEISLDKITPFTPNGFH
# Sequence of h 5HT6 (P50406 whole entry): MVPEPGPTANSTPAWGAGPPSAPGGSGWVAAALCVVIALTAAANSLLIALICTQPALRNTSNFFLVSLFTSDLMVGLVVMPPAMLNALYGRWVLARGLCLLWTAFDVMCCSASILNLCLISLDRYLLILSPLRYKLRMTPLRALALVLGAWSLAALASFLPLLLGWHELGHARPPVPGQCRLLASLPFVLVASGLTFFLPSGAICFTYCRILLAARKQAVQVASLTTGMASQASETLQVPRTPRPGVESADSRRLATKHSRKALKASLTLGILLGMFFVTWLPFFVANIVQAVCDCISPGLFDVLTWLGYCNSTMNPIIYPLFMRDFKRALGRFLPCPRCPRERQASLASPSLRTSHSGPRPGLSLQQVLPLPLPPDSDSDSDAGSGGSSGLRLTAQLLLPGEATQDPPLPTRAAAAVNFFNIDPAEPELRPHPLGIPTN
molecule,measurement,setting,value
B1,MAXIMAL SIGNAL (FLUORESCENCE UNITS),h D5,745 fluorescence units
same,MAXIMAL SIGNAL (FLUORESCENCE UNITS),h 5HT4,2309 fluorescence units
same,MAXIMAL SIGNAL (FLUORESCENCE UNITS),h GLP-1,4198 fluorescence units
same,MAXIMAL SIGNAL (FLUORESCENCE UNITS),h 5HT6,999 fluorescence units
same,MAXIMAL SIGNAL (FLUORESCENCE UNITS),h β2 adr,1439 fluorescence units
same,MAXIMAL SIGNAL (FLUORESCENCE UNITS),h 5HT7,0 fluorescence units
same,MAXIMAL SIGNAL (FLUORESCENCE UNITS),h D1; [1],5692 fluorescence units
B2,maximum signal produced by porcine galanin,r GALR3,2084 relative fluorescent units
B3,MAXIMAL SIGNAL (FLUORESCENCE UNITS),h D5,0 fluorescence units
same,MAXIMAL SIGNAL (FLUORESCENCE UNITS),h 5HT4,1709 fluorescence units
same,MAXIMAL SIGNAL (FLUORESCENCE UNITS),h GLP-1,189 fluorescence units
same,MAXIMAL SIGNAL (FLUORESCENCE UNITS),h 5HT6,98 fluorescence units
same,MAXIMAL SIGNAL (FLUORESCENCE UNITS),h β2 adr,43 fluorescence units
same,MAXIMAL SIGNAL (FLUORESCENCE UNITS),h 5HT7,0 fluorescence units
B4,MAXIMAL SIGNAL (FLUORESCENCE UNITS),"h D1; human D1 receptors in COS-7, 10 μg chimera cDNA and 10 μg receptor cDNA, 100 μM dopamine, Table 9 parallel comparison, mean of two experiments",2149 fluorescence units
B5,maximum signal produced by porcine galanin,r GALR3,2564 relative fluorescent units
B6,MAXIMAL SIGNAL (FLUORESCENCE UNITS),h D5,3385 fluorescence units
same,MAXIMAL SIGNAL (FLUORESCENCE UNITS),h 5HT4,1731 fluorescence units
same,MAXIMAL SIGNAL (FLUORESCENCE UNITS),h GLP-1,3120 fluorescence units
same,MAXIMAL SIGNAL (FLUORESCENCE UNITS),h 5HT6,1009 fluorescence units
same,MAXIMAL SIGNAL (FLUORESCENCE UNITS),h β2 adr,3513 fluorescence units
same,MAXIMAL SIGNAL (FLUORESCENCE UNITS),h 5HT7,206 fluorescence units
same,MAXIMAL SIGNAL (FLUORESCENCE UNITS),h D1; [1],9433 fluorescence units
